Here are results for one substance from paper PMC4772129, “nagZ Triggers Gonococcal Biofilm Disassembly” (Scientific Reports, 2016).

The data set deals with CC(=O)N[C@H]1[C@H](Oc2ccc([N+](=O)[O-])cc2)O[C@H](CO)[C@@H](O)[C@@H]1O. The data set can be described thus: purified protein. The following applies: KPO4 buffer 200 mM, pH 8.0, 37 °C (standard assay).

Consider NagZ (Neisseria gonorrhoeae FA 1090), for which the Michaelis constant (Km) turned out to be 3.2 mM.
